Patent US20250263481A1

Target: human CLDN18.2 expressed on cells (human)
Test: cell-based or functional assay

For Human IgG1 isotype antibody, the ADCC on KATOIII CLDN18.2 cells, LDH: max (% cytotoxity) (run A) was 0.3%, the ADCC on KATOIII CLDN18.2 cells, LDH: max (% cytotoxity) (run B) was -5.51% and the ADCC on KATOIII CLDN18.2 cells, LDH: max (% cytotoxity) (run C) was -7.64%. The ADCC on NCI-N87 CLDN18.2 cells, LDH: max (% cytotoxity) (run A) was -6.73%, the ADCC on NCI-N87 CLDN18.2 cells, LDH: max (% cytotoxity) (run B) was -11.7% and the ADCC on NCI-N87 CLDN18.2 cells, LDH: max (% cytotoxity) (run C) was -9.22%. For the same substance, the ADCC, FACS: Max (%) was 8.3%, the ADCC, LDH: Max (%) was 1.5% and the CDC on CT26 CLDN18.2 cells, LDH: max (% cytotoxity) (run A) was 10.8%. For the same substance, the CDC on CT26 CLDN18.2 cells, LDH: max (% cytotoxity) (run B) was -0.23%, the CDC on CT26 CLDN18.2 cells, LDH: max (% cytotoxity) (run C) was -0.38% and the CDC on KATOIII CLDN18.2 cells, LDH: max (% cytotoxity) (run A) was -0.85%. The CDC on KATOIII CLDN18.2 cells, LDH: max (% cytotoxity) (run B) was -2.46% and the CDC on KATOIII CLDN18.2 cells, LDH: max (% cytotoxity) (run C) was -1.53%.
